Test results taken from patent US20130197191A1 (Amgen, published 2013).
Like-named read-outs stand apart in the source and are kept apart here. Blank lines part the entries; values can stand above or below the binder they belong to.

What was measured:
Experiment in all cases: phage panning
[1] = target: T1, recombinant human β-Klotho (human, UniProt Q86Z14 53-996, limits assumed, biotinylated in the AlphaScreen assays (site not stated))
T1 construct: also called rhβ-klotho; huβKlotho-His
T1 sequence: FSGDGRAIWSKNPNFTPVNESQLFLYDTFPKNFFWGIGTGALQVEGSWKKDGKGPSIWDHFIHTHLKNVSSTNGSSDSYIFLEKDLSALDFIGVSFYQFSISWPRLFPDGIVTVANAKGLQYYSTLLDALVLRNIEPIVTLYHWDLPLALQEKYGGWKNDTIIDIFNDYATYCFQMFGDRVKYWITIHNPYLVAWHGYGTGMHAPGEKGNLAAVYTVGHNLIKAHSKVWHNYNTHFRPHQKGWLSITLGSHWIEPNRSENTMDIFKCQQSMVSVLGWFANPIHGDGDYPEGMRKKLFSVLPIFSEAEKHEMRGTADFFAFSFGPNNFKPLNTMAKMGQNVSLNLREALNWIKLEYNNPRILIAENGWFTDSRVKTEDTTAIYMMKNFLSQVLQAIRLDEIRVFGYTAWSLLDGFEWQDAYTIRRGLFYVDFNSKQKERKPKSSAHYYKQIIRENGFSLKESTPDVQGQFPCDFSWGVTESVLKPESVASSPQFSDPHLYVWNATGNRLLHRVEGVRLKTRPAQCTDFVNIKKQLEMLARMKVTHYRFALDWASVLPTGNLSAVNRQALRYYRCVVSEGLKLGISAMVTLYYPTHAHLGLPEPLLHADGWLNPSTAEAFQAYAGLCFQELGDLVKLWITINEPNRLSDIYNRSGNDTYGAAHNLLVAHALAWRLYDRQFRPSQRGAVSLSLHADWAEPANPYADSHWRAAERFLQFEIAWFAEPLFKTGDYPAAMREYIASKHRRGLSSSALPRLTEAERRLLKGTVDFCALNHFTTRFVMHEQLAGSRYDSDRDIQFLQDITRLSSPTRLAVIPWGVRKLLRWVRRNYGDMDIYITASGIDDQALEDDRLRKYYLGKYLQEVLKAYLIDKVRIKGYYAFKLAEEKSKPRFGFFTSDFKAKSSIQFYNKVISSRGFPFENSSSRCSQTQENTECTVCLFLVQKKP

human FGFR1c-Fc = target: T2, human FGFR1c-Fc (human, UniProt P11362 22-376)
T2 construct: also called huFGFR1c-Fc; huFGFR1c/Fc
T2 sequence: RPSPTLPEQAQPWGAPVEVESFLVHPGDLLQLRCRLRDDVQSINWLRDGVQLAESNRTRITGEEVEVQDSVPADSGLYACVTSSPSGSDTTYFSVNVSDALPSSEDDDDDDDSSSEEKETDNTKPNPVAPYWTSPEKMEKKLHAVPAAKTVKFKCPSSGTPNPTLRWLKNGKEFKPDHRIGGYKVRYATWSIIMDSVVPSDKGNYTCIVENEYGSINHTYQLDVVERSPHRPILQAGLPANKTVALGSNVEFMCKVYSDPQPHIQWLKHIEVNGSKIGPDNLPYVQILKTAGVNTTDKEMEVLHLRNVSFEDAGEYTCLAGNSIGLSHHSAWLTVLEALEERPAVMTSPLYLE

[2] = target: T1, recombinant human β-Klotho; remark: listed apart in the source
[3] = target: T1, recombinant human β-Klotho; remark: listed apart in the source
[4] = target: T1, recombinant human β-Klotho; remark: listed apart in the source
[5] = target: T1, recombinant human β-Klotho; remark: listed apart in the source
[6] = target: T1, recombinant human β-Klotho; remark: listed apart in the source

binding result [3]: binds
B4: β-Klotho-binding monomer bKmutM28 (designed binder)
chain: CPWFHHFKCRNGQRIPLHLVCDGVPDCGDDSDETDCGDSHILPFSTPGPST

binding result [4]: binds
B5: β-Klotho walked dimer BK_R1c_D24 (designed binder)
chain: CRPDEFPCRSTGRCVPRRWVCDGVDDCGDNSDESLAHCQTPTCQPDEFTCSSGRCIPQPWLCDGLNDCGDGSDEPPAHCSAPASEPPGSL

binding result [5]: binds
B6: β-Klotho walked dimer BK_R1c_D22 (designed binder)
chain: CQPDEFTCSSGRCIPQPWLCDGLNDCGDGSDEPPAHCSAPASEPPGSLCRPDEFRCKNGRCIPQTWVCDGEDDCQDSSDETDCESTVRT

binding result [6]: binds
B7: β-Klotho walked dimer BK_R1c_D18 (designed binder)
chain: CPPDEFQCRGTKKCLPLAWVCDGDNDCEDDSDEESCASAVHTCQSNEFRCRSGRCIPQHWLCDGLNDCGDGSDESQQCSAPASEPPGSL

binding result [1]: binds
B8: β-Klotho walked dimer BK_R1c_D14 (designed binder)
chain: CLPDEFQCGSGRCIPQTWVCDGLNDCGDGSDEPPAHCSAPASEPPGSLCRSDEFRCGNGRCIPLTWVCDGEDDCQDSSDETGCTTPGHT

Continued, binder first:

B1: β-Klotho walked dimer bKWD01 (designed binder)
chain: CLPDEFQCGSGRCIPQHWLCDGLNDCGDGSDEPPAHCSAPASEPPGSLCRAGEFRCSNGRCVPLTWLCDGEDDCQDNSDEKNCAQPT
binding result [1]: binds

Binder: CGAGLFTCRSTNICISQVWVCDGVDDCEDNSDEDSCSAPASEPPGSL (designed binder, also called M03mutM01) [FGFR1c-binding monomer M03mut01]
binding result (human FGFR1c-Fc): binds

B2: β-Klotho walked dimer BK_R1c_D05 (designed binder)
chain: CAAGQFRCHNSDTCLPGAWVCDGDNDCGDNSDEASCQKRTCHSFNQFECRNGQCIPLHLVCDGVPDCGDNSDETDCGDSHILPFSTPGPST
binding result [2]: binds

B3: β-Klotho walked dimer BK_R1c_D15 (designed binder)
chain: CLPDEFQCGSGRCIPQTWVCDGLNDCGDGSDEPPAHCSAPASEPPGSLCRSNQFTCGNGNCIPQPWVCDGEDDCGDDSDEESCKEHT
binding result [1]: binds
